Values quoted from earlier work in publication PMC5268426.
Read-outs that look alike come from different tables or passages of the source. Blank lines part the entries; values can stand above or below the substance they belong to.

Experiments:
Prostasin (Homo sapiens) = Prostasin (Homo sapiens) (UniProt Q16651)
[1] = biological target: Pancreatic trypsin inhibitor (PTI) (Bos taurus) (UniProt P00974)
[2] = biological target: Pancreatic trypsin inhibitor (PTI) (Bos taurus) (UniProt P00974); remark: listed apart in the source

Ki (Prostasin (Homo sapiens)): 5 nM
Substance: HAI-2 (from UniProt O43291)

Kd [1]: 0.06 pM
Substance: Trypsin (from UniProt P00760)

Kd [2]: 2000 nM
Substance: Trypsinogen (from UniProt P00760)
